Laboratory results: patent US20020147129A1
Where no end group is shown, it is not given here.

Tests used:
[1] = target: embryonic chicken AT4 receptor (chicken); assay: cell-based or functional assay
[2] = target: AT4 receptor of bovine adrenal membranes (bovine); assay: competition for 125I-Ang IV binding, bovine adrenal membranes
[3] = target: angiotensin AT4 receptor of Macaca fascicularis brain (Macaca fascicularis); assay: competition for [125I]Ang IV binding, monkey prefrontal cortical sections
[4] = target: AT4 receptor of sheep central nervous system (sheep); assay: competition for [125I]Ang IV binding, sheep cerebellar cortical membranes
[5] = target: embryonic chicken AT4 receptor (chicken); assay: competition for [125I]Ang IV binding, E13 chicken chorioallantoic membranes
[6] = target: AT4 receptor of sheep central nervous system (sheep); assay: competition for 125I-LVV-haemorphin-7 binding, sheep cerebellar cortical membranes
[7] = target: embryonic chicken Ang II receptor (chicken); assay: competition for 125I[Sar1Ile8]Ang II binding, E13 chicken chorioallantoic membranes
Chain of embryonic chicken Ang II receptor (chicken) (P79785 whole entry): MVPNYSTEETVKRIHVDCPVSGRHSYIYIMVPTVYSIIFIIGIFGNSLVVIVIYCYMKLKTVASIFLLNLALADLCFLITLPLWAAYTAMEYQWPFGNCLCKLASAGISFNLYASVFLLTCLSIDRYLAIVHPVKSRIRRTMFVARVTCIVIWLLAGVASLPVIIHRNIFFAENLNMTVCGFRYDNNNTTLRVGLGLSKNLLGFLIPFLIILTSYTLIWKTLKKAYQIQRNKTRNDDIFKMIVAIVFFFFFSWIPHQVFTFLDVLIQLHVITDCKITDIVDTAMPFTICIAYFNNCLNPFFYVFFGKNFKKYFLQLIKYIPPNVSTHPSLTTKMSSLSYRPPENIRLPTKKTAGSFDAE

Chain of embryonic chicken AT4 receptor (chicken) (F1NNE7 entry or part of it): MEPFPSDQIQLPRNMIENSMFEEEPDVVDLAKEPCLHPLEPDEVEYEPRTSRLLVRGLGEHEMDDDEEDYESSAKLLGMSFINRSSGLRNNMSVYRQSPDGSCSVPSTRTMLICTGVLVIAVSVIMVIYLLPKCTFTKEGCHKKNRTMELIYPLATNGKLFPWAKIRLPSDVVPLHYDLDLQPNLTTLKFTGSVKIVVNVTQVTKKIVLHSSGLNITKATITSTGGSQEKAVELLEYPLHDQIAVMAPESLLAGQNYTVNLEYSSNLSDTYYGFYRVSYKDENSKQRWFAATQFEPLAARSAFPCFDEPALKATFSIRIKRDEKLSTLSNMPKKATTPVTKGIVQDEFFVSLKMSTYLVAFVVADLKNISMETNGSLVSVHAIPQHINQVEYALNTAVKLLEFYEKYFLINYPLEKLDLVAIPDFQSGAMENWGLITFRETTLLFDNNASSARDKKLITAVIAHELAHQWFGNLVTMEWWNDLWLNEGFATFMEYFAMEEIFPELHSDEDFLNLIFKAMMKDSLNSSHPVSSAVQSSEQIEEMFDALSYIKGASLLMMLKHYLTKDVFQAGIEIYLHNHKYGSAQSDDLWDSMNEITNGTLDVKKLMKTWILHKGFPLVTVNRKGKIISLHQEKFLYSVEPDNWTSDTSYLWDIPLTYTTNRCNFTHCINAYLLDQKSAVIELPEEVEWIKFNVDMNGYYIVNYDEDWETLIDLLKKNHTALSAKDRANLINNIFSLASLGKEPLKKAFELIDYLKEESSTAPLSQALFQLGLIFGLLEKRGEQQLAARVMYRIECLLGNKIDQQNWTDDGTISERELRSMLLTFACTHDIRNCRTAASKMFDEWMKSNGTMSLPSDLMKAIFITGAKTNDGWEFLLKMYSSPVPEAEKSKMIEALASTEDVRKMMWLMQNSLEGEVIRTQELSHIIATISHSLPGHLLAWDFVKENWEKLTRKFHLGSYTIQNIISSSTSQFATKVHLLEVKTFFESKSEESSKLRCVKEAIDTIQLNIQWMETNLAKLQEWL

| Binder | inhibition of neurite outgrowth from E11 chicken sympathetic neurons: half maximal inhibition [1] [pM] | inhibition of neurite outgrowth from E11 chicken sympathetic neurons: maximal effect [1] [nM] | inhibition of neurite outgrowth from E11 chicken sympathetic neurons: threshold [1] [pM] | affinity in competing for ^125I-Ang IV binding [2] [nM] | IC50 [3] [nM] | IC50 [4] [nM] | IC50 [5] [nM] | IC50 [6] [nM] | IC50 [7] [nM] |
| --- | --- | --- | --- | --- | --- | --- | --- | --- | --- |
| VYIHPF (also: same id also used for [125I]Ang IV tracer, radioiodinated with chloramine T) [angiotensin IV] | 100 | 1 | 10 | 1 to 5 | 5 | 1.13 | 18 | 1 | 50000 |
| LVVYPWTQRF [LVV-haemorphin-7] | – | – | – | 1 to 5 | – | 2 | – | 5.6 | – |
